Each binder was assayed against T1, HLA-A*03:01 (human) (assay: UV-ligand exchange, anti-b2m ELISA; peptide exchange yield grade (>10% +, >20% ++, >50% +++, >75% ++++)).
T1 construct: MHC class I monomer first loaded with a UV-sensitive peptide that is cleaved by UV irradiation and exchanged for the test peptide; captured on streptavidin plates; also called peptide-receptive MHC molecules
Source text: Candidate peptides for T cell based therapies according to the present invention were further tested for their MHC binding capacity (affinity). The individual peptide-MHC complexes were produced by UV-ligand exchange, where a UV-sensitive peptide is cleaved upon UV-irradiation and exchanged with the peptide of interest as analyzed. Only peptide candidates that can effectively bind and stabilize the peptide-receptive MHC molecules prevent dissociation of the MHC complexes. To determine the yield of the exchange reaction, an ELISA was performed based on the detection of the light chain (β2m) of stabilized MHC complexes. The assay was performed as generally described in Rodenko et al. (Rodenko et al., 2006)
96 well MAXISorp plates (NUNC) were coated over night with 2 ug/ml streptavidin in PBS at room temperature, washed 4× and blocked forl h at 37° C. in 2% BSA containing blocking buffer. Refolded HLA-A*02:01/MLA-001 monomers served as standards, covering the range of 15-500 ng/ml. Peptide-MHC monomers of the UV-exchange reaction were diluted 100-fold in blocking buffer. Samples were incubated for 1 h at 37° C., washed four times, incubated with 2 ug/ml HRP conjugated anti-β2m for 1 h at 37° C., washed again and detected with TMB solution that is stopped with […]. Absorption was measured at 450 nm.

Row | peptide exchange yield | Binder
1 | > 75% | RVYPRPPSK
2 | > 75% | RLYEMILQR
3 | > 75% | RSKWSNVFK
4 | 50 to 75% | IVYPSATDKTK
5 | > 75% | AISSTVLGK
6 | > 75% | KILDRVLSRY
7 | > 75% | KVADFGLARLLK
8 | > 75% | RIVDYLLEK
9 | > 75% | KTCQVSGLLY
10 | > 75% | ALAAKLEVK
11 | 20 to 50% | SSLPRAFQK
12 | 50 to 75% | RVAEEILIK
13 | > 75% | RLKMAQESVSK
14 | 20 to 50% | KVFEEPEDFLK
15 | > 75% | KTGWFTLLY
16 | 50 to 75% | KVLEPPLGAR
17 | 50 to 75% | SIINFKPLTY
18 | > 75% | RVLPPLTRILK
19 | > 75% | RLYYSFKNITK
20 | > 75% | KVYIPPIINK
21 | 50 to 75% | RLFPGLYLGY
22 | > 75% | QICLPAIYK
23 | 50 to 75% | LLPTVLIKK
24 | > 75% | VAFIPLSNK
25 | > 75% | SLYNLGGAK
26 | > 75% | KIFQGQINK
27 | > 75% | KLQAKVLQY
28 | > 75% | IVFPDVISK
29 | > 75% | IVAFIPLSNK
30 | > 75% | RSYSHVVLK

From patent US20200000897A1 (published 2020)
